Source: US20190241653A1 (NATIONAL RESEARCH COUNCIL OF CANADA, published 2019)
Numbering of substitutions follows the chain as printed.

B1: FC5-H1 (VHH)
VHH: EVQLVESGGGLVQPGGSLRLSCAASGFKITHYTMGWVRQAPGKGLEWVSRITWGGDNTFYSNSVKGRFTISRDNSKNTLYLQMNSLRAEDTAVYYCAAGSTSTATPLRVDYWGQGTLVTVSS
notes: Humanized variant of FC5, expressed with His5 and c-myc tags; not shown: His5 and c-myc tags
B2: FC5-H2 (VHH)
VHH: B1 VHH with L79V
notes: as for B1
B3: FC5 VHH (parental camelid single domain antibody) (VHH)
VHH: DVQLQASGGGLVQAGGSLRLSCAASGFKITHYTMGWFRQAPGKEREFVSRITWGGDNTFYSNSVKGRFTISRDNAKNTVYLQMNSLKPEDTADYYCAAGSTSTATPLRVDYWGKGTQVTVSS
notes: Llama-derived VHH expressed in E. coli in fusion with His5 and c-myc tags; also called FC5 camelid; sdAb FC5; not shown: His5 and c-myc tags
B4: FC5-H7 (VHH)
VHH: B1 VHH with V37F, G44E, L45R, W47F
notes: as for B1
B5: FC5-H3 (VHH)
VHH: B1 VHH with V37F, W47F, L79V
notes: as for B1

Target: receptor(s) of FC5 on SV-ARBEC cells (SV40-immortalized adult rat brain microvascular endothelial cells) (rat) (UniProt Q6AY41)
Test: Mirrorball microplate cytometry on SV-ARBEC cells in suspension, anti-c-myc Alexa 488 detection

| Binder | SV-ARBEC binding (MMFI at 1.3 µM antibody) |
| --- | --- |
| B1 | 27 MMFI |
| B2 | 23.1 MMFI |
| B3 | 20.3 MMFI |
| B4 | 64.2 MMFI |
| B5 | 40.2 MMFI |

Target: T1, receptor(s) of FC5 on HBEC-D3 cells (human microvascular brain endothelial cells) (human, UniProt Q9NV96 2-361)
T1 construct: whole, on cells; The assay used whole, untransfected endothelial cells; also called human brain endothelial cells; TMEM30A
T1 sequence (looked up): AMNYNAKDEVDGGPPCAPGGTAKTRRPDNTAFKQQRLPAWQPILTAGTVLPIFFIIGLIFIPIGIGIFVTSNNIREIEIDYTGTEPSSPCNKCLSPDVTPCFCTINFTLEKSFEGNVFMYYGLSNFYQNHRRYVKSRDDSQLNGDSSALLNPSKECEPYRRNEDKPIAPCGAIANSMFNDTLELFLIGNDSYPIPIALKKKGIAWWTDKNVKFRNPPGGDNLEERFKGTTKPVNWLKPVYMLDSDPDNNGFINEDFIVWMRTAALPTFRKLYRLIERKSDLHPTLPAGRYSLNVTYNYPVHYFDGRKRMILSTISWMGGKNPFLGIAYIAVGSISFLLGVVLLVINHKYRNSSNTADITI
Test: Mirrorball microplate cytometry on HBEC-D3 cells in suspension, anti-c-myc Alexa 488 detection
Procedure: Mirrorball 6 High Sensitivity Microplate Cytometry (TTP Labtech): All buffers and reagents were pre-chilled to 4° C. […] mM EDTA and Mirrorball assay buffer—Live Cell Imaging Solution, LCIB (Invitrogen, 140 mM NaCl, 2.5 mM KCl, 1.8 mM CaCl₂, 1.0 mM MgCl₂, 20 mM Hepes, pH 7.4, mOsm=300). A 20 μl volume of a 1:1 mix of LCIB and 0.5×PBS/2.5 mM EDTA was added to all wells of each 384 well Mirrorball assay plate (Corning 3712); with the exception of row A which received 40 μl of 1000 nM test VHH antibody. Serial dilutions were prepared for each test variant within the Mirrorball 384 well assay plate. A 16-channel Finn pipette (Thermo Scientific) was used to transfer 20 μl of VHH antibody from row A-columns 1-24 into row B-columns 1-24 mixing 8×, then transferring 20 μl of VHH antibody from row B-columns 1-24 into row C-columns 1-24 mixing 8×. Dilutions were repeated until row G-columns 1-24 to create 7 point curve for each VHH antibody variant. A second set of test VHH antibody variants (1000 nM) were added to row I-columns 1-24 and the dilution protocol was repeated until row 0-columns 1-24. Row H-columns 1-24 were reserved on each plate for the reference FC5-H7 VHH single domain antibody. Row P-columns 1-24 received no antibody; this was background control for non-specific binding of the secondary to the cells of interest; thus 48 variants could be tested on each 384 well Mirrorball assay plate. Immortalized adult rat brain microvascular endothelial cells (SV-ARBEC) and/or human microvascular brain endothelial cells (HBEC-D3) were dissociated in Accutase solution (Sigma Aldrich) to generate single cell populations. Cells were washed in LCIB then centrifuged at 200×g, 5 min to pellet. Wash buffer was removed and the cell pellet was re-suspended into 1 mL of LCIB. Cell number was calculated using a Bio-Rad TC20 automated cell counter with Trypan Blue dye to assess viability. The cells were diluted to 350,000 live cells/ml using LCIB. A fluorescent conjugate c-myc Alexa 488 detection antibody (1600 ng/ml, Santa Cruz Biotechnology) supplemented with Draq 5 nuclear stain (2 uM, Cell Signaling) was prepared in LCIB assay buffer.

| Binder | HBEC-D3 binding (MMFI at 1.3 µM antibody) |
| --- | --- |
| B1 | 66.4 MMFI |
| B2 | 31 MMFI |
| B3 | 39.1 MMFI |
| B4 | 72.8 MMFI |
| B5 | 43.9 MMFI |
